Experimental data reported in patent publication US20220040297A1 (Chugai, published 2022).
Where a chain is given by its changes, count along the chain named.

B1: GLS3000 S25A (antibody, name in Kabat numbering, V domains shown)
VH: QVQLVESGGGVVQPGRSLRLSCAASGFTFSNAWMHWVRQAPGKGLEWVAQIKAKSNNYATYYAESVKGRFTISRDDSKNSLYLQMNSLKTEDTAVYYCRYVHYGAYYGVDAWGQGTTVTVSS
VL: DIVMTQSPLSLPVTPGEPASISCRASQSLVHSNRNTYLHWYQQKPGQAPRLLIYKVSNRFSGVPDRFSGSGSGTDFTLKISRVEAEDVGVYYCGQGTQVPYTFGQGTKLEIK
notes: one-arm format as m2
B2: GLS3000 S25I (antibody, name in Kabat numbering, V domains shown)
VH: B1 VH
VL: B1 VL with A25I
notes: one-arm format as m2
B3: GLS3000 S25V (antibody, name in Kabat numbering, V domains shown)
VH: B1 VH
VL: B1 VL with A25V
notes: one-arm format as m2
B4: GLS3000 S26E (antibody, name in Kabat numbering, V domains shown)
VH: B1 VH
VL: B1 VL with A25S, S26E
notes: one-arm format as m2
B5: GLS3000 S27aD (antibody, name in Kabat numbering, V domains shown)
VH: B1 VH
VL: B1 VL with A25S, S28D
notes: one-arm format as m2
B6: GLS3000 S27aE (antibody, name in Kabat numbering, V domains shown)
VH: B1 VH
VL: B1 VL with A25S, S28E
notes: one-arm format as m2
B7: GLS3000 S25D (antibody, name in Kabat numbering, V domains shown)
VH: B1 VH
VL: B1 VL with A25D
notes: one-arm format as m2
B8: GLS3000 S25L (antibody, name in Kabat numbering, V domains shown)
VH: B1 VH
VL: B1 VL with A25L
notes: one-arm format as m2
B9: GLS3000 S26D (antibody, name in Kabat numbering, V domains shown)
VH: B1 VH
VL: B1 VL with A25S, S26D
notes: one-arm format as m2
B10: GLS3000 S25T (antibody, name in Kabat numbering, V domains shown)
VH: B1 VH
VL: B1 VL with A25T
notes: one-arm format as m2
B11: GLS3000 S27aI (antibody, name in Kabat numbering, V domains shown)
VH: B1 VH
VL: B1 VL with A25S, S28I
notes: one-arm format as m2
B12: GLS3000 S25P (antibody, name in Kabat numbering, V domains shown)
VH: B1 VH
VL: B1 VL with A25P
notes: one-arm format as m2
B13: GLS3000 S27aG (antibody, name in Kabat numbering, V domains shown)
VH: B1 VH
VL: B1 VL with A25S, S28G
notes: one-arm format as m2
B14: GLS3000 S25E (antibody, name in Kabat numbering, V domains shown)
VH: B1 VH
VL: B1 VL with A25E
notes: one-arm format as m2
B15: GLS3000 S25M (antibody, name in Kabat numbering, V domains shown)
VH: B1 VH
VL: B1 VL with A25M
notes: one-arm format as m2
B16: GLS3000 S26P (antibody, name in Kabat numbering, V domains shown)
VH: B1 VH
VL: B1 VL with A25S, S26P
notes: one-arm format as m2

Molecular target: CD3ε homodimer protein (human, UniProt P07766 23-126, limits assumed)
Experiment: SPR, immobilized CD3ε homodimer;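 note: biacore T200 surface plasmon resonance at 25 °C, antibody variants flowed as analytes over amine-coupled CD3ε homodimer on a CM4 chip, variant binding amount divided by that of GLS3000 antibody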

Sequence of CD3ε homodimer protein (P07766 23-126 limits assumed): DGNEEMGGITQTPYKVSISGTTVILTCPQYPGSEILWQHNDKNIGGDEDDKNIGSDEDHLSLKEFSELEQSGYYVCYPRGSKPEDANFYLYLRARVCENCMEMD

Q: Which “ratio of amounts bound (vs GLS3000)” value does the source give for B1 here?
A: The value was 0.92.

Q: For B2, which “ratio of amounts bound (vs GLS3000)” value is on record?
A: Its value is 0.53.

Q: B3 was tested. Which “ratio of amounts bound (vs GLS3000)” value did it give?
A: The value was 0.73.

Q: B4 was tested. Which “ratio of amounts bound (vs GLS3000)” value did it give?
A: The value was 0.74.

Q: With B5 as the binder, how does the “ratio of amounts bound (vs GLS3000)” value read?
A: The value was 0.79.

Q: For B6, which “ratio of amounts bound (vs GLS3000)” value is on record?
A: The value was 0.81.

Q: B7 was tested. Which “ratio of amounts bound (vs GLS3000)” value did it give?
A: Its value is 0.48.

Q: With B8 as the binder, how does the “ratio of amounts bound (vs GLS3000)” value read?
A: Its value is 0.24.

Q: How did the “ratio of amounts bound (vs GLS3000)” value turn out when B9 was run?
A: The value was 0.86.

Q: With B10 as the binder, how does the “ratio of amounts bound (vs GLS3000)” value read?
A: Its value is 0.83.

Q: B11 was tested. Which “ratio of amounts bound (vs GLS3000)” value did it give?
A: The value was 1.

Q: For B12, which “ratio of amounts bound (vs GLS3000)” value is on record?
A: The value was 1.01.

Q: For B13, which “ratio of amounts bound (vs GLS3000)” value is on record?
A: Its value is 1.03.

Q: Which “ratio of amounts bound (vs GLS3000)” value does the source give for B14 here?
A: Its value is 0.21.

Q: How did the “ratio of amounts bound (vs GLS3000)” value turn out when B15 was run?
A: The value was 0.31.

Q: B16 was tested. Which “ratio of amounts bound (vs GLS3000)” value did it give?
A: The value was 0.78.
